# Measured values published in patent publication US20220144922A1 (Adimab, published 2022).
# Where a chain is given by its changes, count along the chain named.
# B1: ADI-15614 (antibody, V domains shown)
# VH: EVQLLESGGGLVKPGGSLRLSCAASGFTISGYNMFWVRQPPGKGLEWVSSITAGSSYLNYADSVKGRFIVSRDNAKNSLYLQMNSLRAEDTAVYFCARAPLLPAMMDLWGQGTTVTVSS
# VL: QSVLTQPPSVSGAPGQRVTISCTGSSSNIGAGYDVHWYQQLPGTAPKLLIYTNNNRPSGVPDRFSGSKSGTSASLAITGLQAEDEADYYCQSYDRSLNGYVFGTGTKLTVL
# notes: IgG
# B2: ADI-15623 (antibody, V domains shown)
# VH: B1 VH with S30G
# VL: B1 VL with L4V, K107Q
# notes: IgG; also called Antibody Number 188
# B3: ADI-15605 (antibody, V domains shown)
# VH: QVQLVQSGPEVKKPGESLKISCKGSGYTFTTYWIGWVRQRPGKGLEWMGIIHPGDSDTRYSPSLQGQVTISVDKSINTAYLQWRSLKASDTGMYYCARFEYGDFGNDFWGQGTLVTVSS
# VL: NFMLTQPHSVSESPGKTVTISCSRSSGSIANNYVQWYQQRPGSSPTTVIYEDNQRPSGVPDRFSGSIDSSSNSASLTISGLKTEDEADYYCQSYDSSNHRVFGGGTKLTVL
# notes: IgG
# B4: ADI-15611 (antibody, V domains shown)
# VH: QVQLVESGAEVKKPGSSVKVSCKASGGTFGRDSISWVRQAPGQGLEWMGGINPIFHTSHYAQKFQGRVTITADESTSTAYMELGNLRSEDTAMYYCARVPPPRGHCESTSCLWGTYFAFWGQGTLVTVSS
# VL: ETTLTQSPATLSLSPGERATLSCRASQRVRSYLAWYQQKPGQAPRLLIYDASIRATGIPARFSGSGSGADFTLTISSLEPEDFAVYYCQLRDYWPPTWTFGQGTKVEIK
# notes: IgG
# B5: ADI-15601 (antibody, V domains shown)
# VH: EVQLLETGGGLVKPGGSLRLSCEATGFTFSDFAMSWVRQAPGKGLEWVSLIKSSDYPYYADSVRGRFTISRDNSKNTLYLRMDNLRADDTAVYYCAKDADFWSGEAYNGGYNFDSWGQGTLVTVSS
# VL: EIVLTQSPATLSVSPGERATLSCRASQSIGTNLAWYQQKPGQAPRLLIFGASTRATGIPARFTGSGSGTEFTLTIGSLQSEDFAVYYCQQYNQWPPITFGGGTKVEIK
# notes: IgG
# B6: ADI-15647 (antibody, V domains shown)
# VH: QVQLVQSGAEVKKPGSSVRVSCEASGGTFSTYAISWVRQAPGLGLEWMGGIHPISGTANYAQSFQDRLTITVDKSTSTAYMDLSSLRSEDTAIYYCARVGLGRTWIYDTMGYLDYWGQGTLVTVSS
# VL: EIVLTQSPATLSLSPGERVTLSCRASQSVNDYLAWYQQKPGQAPRLLIYDASNRATGIPARFSGSGSGTDFTLTISSLEPEDFAVYYCQHRTNWPSLTFGGGTKVEIK
# B7: ADI-15665 (antibody, V domains shown)
# VH: QVQLVQSGPEVKRPGSSVKVSCKASGDTFNNYAISWVRQAPGQGLEWMGGIHPTTATPNYAQKFQGRVVISADKSTSTAYLDLSRLRSEDTAMYYCARVGVGRTWVYDIMGYLDYWGQGTLVTVSS
# VL: B6 VL with V19A, N30S, K39R, N53T, A60D, S65G, T92N
# B8: ADI-15657 (antibody, V domains shown)
# VH: QVQLVQSGTEVKKPGSSVKVSCKASGGTFSSYAISWVRQAPGQGLEWMGGIHPTSGPANYAQKFQDRVTITVDKSTSTVYMDLSSLRSEDTAVYYCARVGVGRTWIYDTMGYLDFWGQGTLVTVSS
# VL: B6 VL with L4M, V19A, N30S, S76T, T92S, N93D, V105L
# B9: ADI-15600 (antibody, V domains shown)
# VH: EVQLVESGGGLIQPGGSLRLSCAVSGFSVSSNYISWVRQPPGKGLEWVSVSYSSGVTDYADSVKGRFTTSRDNSKNTLYLQMNSLRGEDTAVYYCARELVPNFYESHGYFSVWGQGTLVTVSS
# VL: DIVMTQSPGTLSLSPGERATLSCRASQRVDSSYLAWYQQKPGQAPRLLIYGGSSRATGIPDRFSGSGSGTDFTLTISRLEPEDFALYYCQQYGFSQTFGQGTKVEIK
# notes: IgG; also called Antibody Number 166
# Experiments:
# [1] = biological target: T1, prefusion-stabilized RSV F ectodomain (DS-Cav1), subtype B (respiratory syncytial virus subtype B); test: BLI, IgG on sensor
# T1 construct: extracellular domain; also called Prefusion subtype B
# [2] = biological target: T2, RSV F protein of subtype A strain A2, on virus (respiratory syncytial virus subtype A …, UniProt P03420 26-574); test: cell-based or functional assay
# [3] = biological target: HMPV F protein (NL/1/00, A1 sublineage), on virus (human metapneumovirus); test: cell-based or functional assay
# [4] = biological target: T2, RSV F protein of subtype A strain A2, …; test: cell-based or functional assay; remark: listed apart in the source
# [5] = biological target: RSV F protein of subtype B strain 18537, on virus (respiratory syncytial virus subtype B …, UniProt P13843 26-574); test: cell-based or functional assay
# [6] = biological target: T3, postfusion RSV F ectodomain, subtype B (respiratory syncytial virus subtype B); test: BLI, IgG on sensor
# T3 construct: extracellular domain; also called Postfusion subtype B
# [7] = biological target: T4, postfusion RSV F ectodomain (F ΔFP), subtype A (respiratory syncytial virus subtype A, UniProt P03420 26-109; P03420 147-524); test: BLI, IgG on sensor
# T4 construct: extracellular domain; also called Postfusion subtype A
Binder,Kd [1],RSV-A2 IC50 [2],HMPV-A1 IC50 [3],Neut IC50 (ug/ml) subtype A [4],Neut IC50 (ug/ml) subtype B [5],Kd [6],Kd [7]
B1,0.466 nM,0.03 µg/mL,0.22 µg/mL,0.027 µg/mL,0.059 µg/mL,,
B2,0.435 nM,0.05 µg/mL,0.37 µg/mL,0.054 µg/mL,0.108 µg/mL,,
B3,3.49 nM,,,> 10 µg/mL,> 10 µg/mL,0.171 nM,0.163 nM
B4,4.34 nM,,,0.15 µg/mL,0.432 µg/mL,0.609 nM,0.626 nM
B5,0.329 nM,,,0.046 µg/mL,0.084 µg/mL,0.193 nM,0.207 nM
B6,,> 25 µg/mL,20.3 µg/mL,> 10 µg/mL,> 10 µg/mL,,
B7,,12.7 µg/mL,13.5 µg/mL,12.7 µg/mL,6.25 µg/mL,,
B8,,> 25 µg/mL,11.9 µg/mL,> 10 µg/mL,> 10 µg/mL,,
B9,1.42 nM,,,1.31 µg/mL,0.958 µg/mL,0.148 nM,0.162 nM
